Assays:
[1] = molecular target: LZ-Las17(281–633), biotinylated leucine zipper dimeric form of Las17 residues 281–633 (S. cerevisiae); assay: supernatant depletion binding assay; biotinylated LZ-Las17(281–633) dimer on magnetic streptavidin beads (16 nM to 2.06 μM dimer for the WT isotherm; 0.6 μM dimer for mutants and CA fusions); 50 nM Arp2/3 complex in solution; 1x PC buffer plus 0.05% Tween-20; 70 min, room temperature; Arp2/3 complex left in the supernatant quantified by anti-Arp3 dot blot
[2] = molecular target: Monomeric Las17(281–633) (S. cerevisiae) (UniProt Q12446)
[3] = molecular target: LZ-Myo5(1146–1220), biotinylated leucine zipper dimeric form of the Myo5 CA segment (S. cerevisiae) (UniProt P03069); assay: supernatant depletion binding assay; biotinylated LZ-Myo5–CA dimer on magnetic streptavidin beads (25 nM to 1.6 μM dimer for the WT isotherm; 0.4 μM dimer for mutants); 50 nM Arp2/3 complex in solution; 1x PC buffer plus 0.05% Tween-20; 70 min, room temperature; Arp2/3 complex left in the supernatant quantified by anti-Arp3 dot blot

S. cerevisiae Arp2/3 complex with ARPC1(F183A, K185D) (from UniProt P47117 1-449; P32381 1-391; P38328 1-384; P53731 1-342)
reduction in binding compared with the WT complex [1]: 50%

S. cerevisiae Arp2/3 complex with Arp2(V142A, Y146A) (from UniProt P47117 1-449; P32381 1-391; P38328 1-384; P53731 1-342)
reduction in binding compared with the WT complex [1]: 50%

S. cerevisiae Arp2/3 complex with Arp3(R371D) (from UniProt P47117 1-449; P32381 1-391; P38328 1-384; P53731 1-342)
reduction in binding compared with WT Arp2/3 complex [1]: 30% | maximum polymerization rate in pyrene actin polymerization assay as percent of WT activity; 20 nM Arp2/3 complex, 3 μM 15% pyrene actin, Las17(281–633), PC buffer (% of the WT activity) [2]: 56

S. cerevisiae Arp2/3 complex with Arp3(R403D, K404D) (from UniProt P47117 1-449; P32381 1-391; P38328 1-384; P53731 1-342)
maximum polymerization rate in pyrene actin polymerization assay as percent of WT activity; 20 nM Arp2/3 complex, 3 μM 15% pyrene actin, 1.5 μM monomeric Las17(281–633), PC buffer (% of the WT activity) [2]: 20

S. cerevisiae Arp2/3 complex with Arp3(W191A, T192A) (from UniProt P47117 1-449; P32381 1-391; P38328 1-384; P53731 1-342)
maximum polymerization rate in pyrene actin polymerization assay as percent of WT activity; 20 nM Arp2/3 complex, 3 μM 15% pyrene actin, 1.5 μM monomeric Las17(281–633), PC buffer (% of the WT activity) [2]: 17

S. cerevisiae Arp2/3 complex with the CA segment of N-WASP fused to Arp2 (Arp2–CA fusion complex) (from UniProt P47117 1-449; P38328 1-384; P53731 1-342)
percent of the complex pulled down at 0.6 μM (LZ-Las17(281–633))2 [1]: 30%

S. cerevisiae Arp2/3 complex with the CA segment of N-WASP fused to Arp3 (Arp3–CA fusion complex) (from UniProt P32381 1-391; P38328 1-384; P53731 1-342)
percent of the complex pulled down at 0.6 μM (LZ-Las17(281–633))2 [1]: 73%

WT S. cerevisiae Arp2/3 complex (ARPC2 with C-terminal tandem 12xHis and TwinStrep tags) (from UniProt P47117 1-449; P32381 1-391; P38328 1-384; P53731 1-342)
Kd [1]: 160 nM | Kd [3]: 130 nM

— PMC10944109
